The values below come from PMC10107573 (Nature Communications, 2023).

This assay concerns the target recombinant biotinylated SARS-CoV-2 spike RBD, wild type (SARS-CoV-2, UniProt P0DTC2, biotinylated). Description: BLI. To be noted: both partners purified.

B1: monoclonal antibody 10-5B (human IgG1) (antibody, V domains shown)
VH: EVQLVESGGGLIQPGGSLRLSCAVSGFTVSRMSWVRQAPGKGLECVSVIYTGGNTDYADSVKGRFTISRDNSKNTLYLQMNSLRAEDTALYYCVRGSGGIHDAFDIWGQGTMVTVSS
VL: DIQMTQSPSSVSASVGDRVTITCRASQGISTWLAWYQQKPGKAPKVLINAASGLQSGVPSRFSGSGSGTDFTLTISSLQPEDFATYYCQQAHSFPPTFGPGTKLEIK
Regarding B1, the binding result was “binds”.

B2: monoclonal antibody 1-1D (human IgG1) (antibody, V domains shown)
VH: EVQLVESGGGLIQPGGSLRLSCAASGFTVSSNYMSWVRQAPGKGLEWVSVIYSGGSTYFADSVKGRFTISRDNSKNTLYLQMNSLRAEDTAVYYCARGELGYSYGMDVWGQGTTVTVSS
VL: QSVLTQPPSVSAAPGQKVTISCSGSSSNIGDNYVSWYQLLPGTAPKLLIYDNNQRPSGIPDRFSGSKSGTSATLGITGLQTGDEADYYCGTWDSSLSTGVFGGGTRLTVL
Consider B2, for which the binding result is “binds”.
